Assay results as given in paper PMC6442461 (2020).

Target: T1, cytochrome f soluble domain lacking the transmembrane helix (Nostoc sp. PCC 7119, UniProt Q93SW9)
T1 chain: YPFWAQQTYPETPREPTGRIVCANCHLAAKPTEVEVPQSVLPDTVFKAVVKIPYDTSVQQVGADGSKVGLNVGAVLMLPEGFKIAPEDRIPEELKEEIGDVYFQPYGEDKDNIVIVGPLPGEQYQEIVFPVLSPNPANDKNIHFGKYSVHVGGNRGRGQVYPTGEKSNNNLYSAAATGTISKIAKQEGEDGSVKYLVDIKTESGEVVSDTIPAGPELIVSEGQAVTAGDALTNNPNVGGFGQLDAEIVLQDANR
Assay: fluorescence titration

B1: plastocyanin (protein)
chain: ETYTVKLGSDKGLLVFEPAKLTIKPGDTVEFLNNKVPPHNVVFDAALNPAKSADLAKSLSHKQLLMSPGQSTSTTFPADAPAGEYTFYCEPHRGAGMVGKITVAG
Kd: 70 µM
